The assay deals with human plasma-derived FIXa (Haematologic Technologies Inc) (human) (UniProt P00740). In words: cell-based or functional assay.

The record followed here is patent publication US20250011468A1.

Sequence of human plasma-derived FIXa (Haematologic Technologies Inc) (human) (P00740 47-191, chain 1 of 2): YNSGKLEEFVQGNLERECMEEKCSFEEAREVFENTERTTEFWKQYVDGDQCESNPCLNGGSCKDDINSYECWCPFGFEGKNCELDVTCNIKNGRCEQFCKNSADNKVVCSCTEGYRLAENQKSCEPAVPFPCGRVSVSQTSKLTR
Sequence of human plasma-derived FIXa (Haematologic Technologies Inc) (human) (P00740 227-461, chain 2 of 2): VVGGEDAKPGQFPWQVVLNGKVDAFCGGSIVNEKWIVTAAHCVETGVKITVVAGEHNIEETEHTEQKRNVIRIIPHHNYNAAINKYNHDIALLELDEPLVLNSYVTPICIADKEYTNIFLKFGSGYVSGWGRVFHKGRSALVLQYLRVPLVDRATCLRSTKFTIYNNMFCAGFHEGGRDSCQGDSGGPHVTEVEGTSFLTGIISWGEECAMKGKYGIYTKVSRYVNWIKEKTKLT

B1: 224F3 (anti-FIXa reference antibody, Scheiflinger et al.) (antibody, from another filing, human IgG1, V domains shown)
VH: QVQMQQSGAELVKPGASVKLSCKASGYTFTSQDINWVRQRPEQGLEWIGWIFPGDGSTKYNEKLKGKATLTTDKSSSTAFMQLSRLTSEDSAVYFCARSAYYRYDGSYYYAMDYWGQGTSVTVSS
VL: QIVLTQSPAIMSASLGEEITLTCSASSSVSYMLWYQQKSGTSPKLLIYTTSNLASGVPSRFSGTGSGTFYSLTISSVEAEDAADYYCHQWSSYPRTFGGGTKLEIKR
B1 gave an FXa generation rate at 3.2 nM mAb of 20 pM/min, an FXa generation rate at 6.3 nM mAb of 17.4 pM/min, an FXa generation rate at 12.5 nM mAb of 14.7 pM/min and an FXa generation rate at 25 nM mAb of 9 pM/min. This molecule also showed an FXa generation rate at 50 nM mAb of 9 pM/min, an FXa generation rate at 100 nM mAb of 7.2 pM/min, an FXa generation rate at 200 nM mAb of 5.5 pM/min and a Peak stimulatory activity relative to 224F3 (fold relative to 224F3) of 1.

B2: mAb1-1582 (monovalent one-armed version of the anti-FIXa antibody 224F3) (antibody, from another filing, V domains shown)
VH: B1 VH
VL: B1 VL
B2 yielded a Stimulation index at 3260 nM OA antibody of less than 10 fold.
